Data on two molecules can be found in patent US20210032353A1 (NATIONAL HEALTH RESEARCH INSTITUTES, published 2021).

Experiment [1] deals with T1, VEGFR3 IgD5 (individual recombinant immunoglobin-like domain 5 of VEGFR3) (UniProt P35916 422-552, limits assumed).
T1 construct: domain: IgD5
T1 sequence (looked up): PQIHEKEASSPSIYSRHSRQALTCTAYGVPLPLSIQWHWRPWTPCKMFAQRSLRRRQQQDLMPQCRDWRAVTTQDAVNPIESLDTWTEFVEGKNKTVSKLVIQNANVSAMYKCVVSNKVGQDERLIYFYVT
The experiment can be described thus: cell-based competitive ELISA: R2C9-11 absorbed with the soluble domain, then bound to 293T/VEGFR3 cells, OD405. Here is the method:
Panel A, Cell-based competitive. ELISA. HEK293T cells expressing VEGFR3 (293T/VEGFR3) were coated in 96-well plates. The optimal concentrations of R2C7-1 and R2C9-11 mAbs were determined as described previously (data now shown). The optimal concentrations of R2C7-1 and R2C9-11 mAbs were absorbed with the designed doses of the individual immunoglobin-like domains of VEGFR3 (R3-IgDs) antigens, as indicated. The bound antibodies were immune-probed with secondary antibody conjugated with HRP, visualized by addition of ABTS, and measured at OD₄₀₅ using a microplate reader (SpectraMax). Data are represented as means±S.D. of percentage of isotype control (CTL) in triplicate. The epitope locations of R2C7-1 and R2C9-11 on the VEGFR3 antigen are indicated by the black lines spanning IgD6 in the schematics. Panel B, Native gel electrophoresis. The whole extracellular domain (R3-IgD1-7), domain 3-4 (R3-IgD3-4) and domain 6-7 (R3-IgD6-7) were constructed, expressed in the E. coli, and purified using the anti-Myc affinity purification system. The purity and molecular weight of each recombinant protein were visualized with a standard Western blot using anti-Myc antibody as probe (left). The binding of R2C7-1 and R2C9-11 to the VEGFR3 truncated antigens was evaluated with native gel electrophoresis to confirm the epitopes of R2C7-1 and R2C9-11 mAbs (middle and right, respectively).
The same methodology was adopted to define the epitopes of the antibodies on VEGFR3. To determine the optimal concentrations of the antibodies for VEGFR3, HEK293T/VEGFR3 transfectants were used as targets (data not shown). Subsequently, the antibodies with optimal concentrations were absorbed with individual recombinant extracellular domains of VEGFR3 (R3-IgDs) for competing the binding epitopes. Similarly, their major epitopes were both located in IgD6, but not in IgD7, of VEGFR3. To conform this finding, Western blotting analysis of different recombinant IgD proteins was carried out using native gel electrophoresis.
On the technique in general: An ELISA detects its analyte on a solid surface through an enzyme-linked reagent.

The target of another experiment is T2, R2-IgD4-5 (human, UniProt P35968).
T2 construct: recombinant fragment; also called immunoglobin-like domains 4-5 of VEGFR2
T2 sequence (P35968 328-548 limits assumed): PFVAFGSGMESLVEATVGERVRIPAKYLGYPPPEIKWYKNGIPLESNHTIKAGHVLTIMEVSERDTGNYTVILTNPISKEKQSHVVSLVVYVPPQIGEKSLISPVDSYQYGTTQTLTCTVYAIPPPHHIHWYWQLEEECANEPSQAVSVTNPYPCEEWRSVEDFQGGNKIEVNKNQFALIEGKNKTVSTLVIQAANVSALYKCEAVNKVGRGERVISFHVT
In words: cell-based competitive ELISA: R2C7-1 absorbed with the soluble domains, then bound to fixed 293T/VEGFR2 cells, OD405. Here is the method:
The optimal concentration of R2C7-1 and R2C9-11 mAbs (200 μg/mL and 50 μg/mL, respectively) were absorbed with the designated doses of the individual immunoglobin-like domains of VEGFR2 (R2-IgDs) antigens. After, the fixed 293T/VEGFR2 cells were incubated with the absorbed antibodies at 37° C. for 30 min. The bound antibodies were probed with goat-anti-mouse IgG conjugated with HRP, visualized by addition of ABTS, and measured at OD₄₀₅ using the SpectraMax microplate reader. Data are represented as means±S.D. of the percentage of isotype control (CTL) in triplicate. The potential epitope locations of R2C7-1 (upper) and R2C9-11 (lower) on the VEGFR2 antigen are indicated by black lines spanning IgD6 and IgD7 in the schematics.
To define the recognition epitopes of R2C7-1 and R2C9-11 antibodies, cell-based competitive enzyme-linked immunosorbent assay (ELISA) was performed. HEK293T/VEGFR2 transfectants (5 X×10⁴/well) were coated and fixed on 96-well plates. The optimal concentrations, the highest concentration of the log phase, of R2C7-1 and R2C9-11 antibodies for binding to the cells, were determined using a standard ELISA procedure (data not shown). […]
The epitopes of R2C7-1 and R2C9-11 anti-VEGFR2 antibodies were determined by cell-based competitive ELISA. […]

In a further experiment the target is T3, VEGFR3 (Flt-4)-IgD 6-7 (UniProt P35916 555-764, limits assumed).
T3 construct: domain: IgD6-7; also called R3-IgD6-7; VEGFR3-ED Ig D6-7-myc; not shown: myc tag (pCMV6-XL6-myc vector)
T3 sequence (looked up): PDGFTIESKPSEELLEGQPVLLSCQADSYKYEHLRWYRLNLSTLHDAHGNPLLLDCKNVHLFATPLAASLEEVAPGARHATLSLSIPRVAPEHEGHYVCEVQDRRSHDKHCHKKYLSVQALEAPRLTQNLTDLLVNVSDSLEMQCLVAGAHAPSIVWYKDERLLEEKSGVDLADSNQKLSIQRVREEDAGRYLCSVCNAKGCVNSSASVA
The experiment can be described thus: Biacore; antibody as flow analyte, Flt 4-IgD6-7 as ligand. In general terms: Surface plasmon resonance follows binding to a sensor surface in real time, without labels.

B1: R2C9-11 monoclonal antibody (antibody, V domains shown)
VH: QVQLQQPGAELVKPGASVKLSCKASGYTFTSYWMHWVKQRPGQGLEWIGEINPSNGRTNYNEKFKSKATLTVDKSSSTAYMQLSSLTSEDSAVYYCANLYFDVWGAGTTVTVSS
VL: DIVMTQSPSSLSVSAGEKVTMSCKSSQNLLNSGNQKYYLAWYQQKPGQPPKLLIYGASIRESGVPDRFIGSGSGTDFTLTISSVQAEDLAVYFCQSDHSYPYTFGGGTKLEIK
notes: Mouse monoclonal antibody purified from hybridoma supernatant; An IgG2a isotype antibody served as its control; also called R2C9-11 mAb
Consider B1, for which the binding result in experiment [1] was “no binding (tested: 10 (unit not printed on the sheet))”.

B2: R2C7-1 monoclonal antibody (antibody, V domains shown)
VH: EVQLQQSGPELVKPGASVKISCKASGYSFTDYFINWVIQRHGKSLEWVGRINPYNGGSFYNQKFKDKATLTVDKSSNIAHMELRSLASEDSAIYYCARSGGNGYDYWGQGTTLTVSS
VL: DIVMTQAAPSVPVIPGESVSISCRSSKSLLHSNGNTYLYWFLQRPGQSPQLLIYRMSNLASGVPDRFSGSGSGTAFTLRISRVEAEDVGVYYCMQHLEYPYTFGGGTKVEIK
notes: Mouse monoclonal antibody purified from hybridoma supernatant; An IgG2a isotype antibody served as its control; also called R2C7-1 mAb
One may read the koff as a measure of how fast the partners let go of each other. Broadly, the kon is the second-order rate constant of association. Lower therefore signals slow association. On to B2, for which the binding result in the experiment with R2-IgD4-5 is given as “no binding (tested: 20 (unit not printed on the sheet))”. For the same molecule, in the experiment with VEGFR3 (Flt-4)-IgD 6-7, the koff is 0.0037 s⁻¹ and the kon worked out at 280000 M⁻¹ s⁻¹.
